According to the supplement of paper PMC9170038:

Experiments:
MS2 coat protein [1] = experiment: apparent KD of MS2 coat protein; higher = weaker reporter binding; conditions: Eterna round: R101
Protocol: (§1)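 RNA-MaP: designed FMN/MS2 RNA switches (84 nt design region) are transcribed on-chip within common flanks and titrated with SNAP-549-labelled MS2 coat protein (about 1-3000 nM) in 100 mM Tris pH 7.5, 80 mM KCl, 4 mM MgCl2, without or with 200 uM FMN. Median apparent KD per design; activation ratio = KD,OFF / KD,ON.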

MS2 coat protein [2] = experiment: apparent KD of MS2 coat protein; designed switch direction (-1 OFF switch, 1 ON switch): 1; higher = weaker reporter binding; conditions: Eterna round: R98
Protocol: as §1

Sequence	apparent KD of MS2 coat protein (MS2 coat protein [1]; input ligand: FMN 200 uM)	apparent KD of MS2 coat protein (MS2 coat protein [1]; input ligand: none)	apparent KD of MS2 coat protein (MS2 coat protein [2]; input ligand: FMN 200 uM)	apparent KD of MS2 coat protein (MS2 coat protein [2]; input ligand: none)
GUCAGCUCGUGAGGAUAUACAUCACUGCUUCGGCAGUGUAUUAAGAUAACAUGAGGAUCACCCAUGUAGAAGGCACGAGCUGAU [#MS2NeighbourBaseDeletion - ENG2/2-A2] (puzzle (switch architecture): Exclusion NG 2)	8.5 nM	5.49 nM		
GGAUCGCUUGGAGGAUAUCCAACUAUCCUAGUUGGAGAAGGCCAAGCUACAGAGCUAAGCUUGGAAGUCACUUCGGAUCCACAC [pwkr ssNG1 F9.4.4]			39.2 nM	21.7 nM
GCUGUCGCGUGAGGAUAUGGUCGGCAGUGCUGACCAGAAGGCAUGUCGAUAGACAUGAGGAUCACCCAUGUGGUUAGGGCGGCU [salish99_SSNG1_R02_015]			464 nM	491 nM
UAAAUAAAUCCUAGAGGAUCACCCUAGGAUAUCACCGUCGAGGUGCCAUAAUGGCACCUCGACGGUGAGAAGGAGGGUAAUAAA [#SharedSequence - SLExNG3: 1-1] (puzzle (switch architecture): Small Loop Exclusion NG 3)	29.3 nM	13.8 nM		
GCUUGCGACGCAGGAUAUGGGUGCCUAAACACGAGGAUCACCCGUGUACAGGAAGCUAAAUGCUCUCAGAAGGGCGUCGCAGGC [United States 9 - Jieux - Same State NG 2]			17.5 nM	46.7 nM
AUAAUAACUUGAGGAUAUCGAGUGGAAUACACUCGAGAAGGCAGGGAAACCUGAGGAUCACCCAGGUAAAUAAUAAUAAUAAUA [Same State NG1 - A3C, U17G Submission 1C]			22.7 nM	21.3 nM
CCAAUAUAGUGAGGAUAUGCACAGGAUCACCGUGUAGAAGGCAUCAGGUAGAAGGUGCAGAGGAUCACCCUGUAAGGAUAUACA [pwkr2 ssNG1 DX.7]			129 nM	406 nM
GCCAACUUAUGAGGAUAUGGCACCUUAUUGGUGCCAGAAGGCAUGUCAAUUGACAUGAGGAUCACCCAUGUAUUAUAGUUGGCA [Fiskers NG1ss - 20 m2]			112 nM	724 nM
GCCAUCGUAUGAGGAUAUGGCACCGAAACGGUGCCAGAAGGCAUGUCAAUAGACAUGAGGAUCACCCAUGUAUUAUCGAUGGCA [MatMod 1 - Jieux - Same State NG 1]			46.9 nM	469 nM
UUCAAAGGGUGAGGAUAUGCACAGGAUCACCGUGUAGAAGGCAUCAGGUAGAAGGUGCAGAGGAUCACCCUGUAAGGAUAUAUC [pwkr2 ssNG1 DX.15]			719 nM	1020 nM
GCAGAAGGUGCGGAGGAUCACCCUGUAAGGAUAUGCAUUAGCAAGGAUAUACAGAGGAUCACCCUGUAGAAGGUGCACUUCUGA [pwkr2 ssNG3 DX.8]			2120 nM	850 nM
AAAGAUUUUCAAGGAUAUGACUCCGAAACGGAGUCAGAAGGUGAGGAUCACCCACCUAGCUCAGCGUCGAAAGACGCUGAGCAA [#SharedSequence ExNG1 - 27] (puzzle (switch architecture): Exclusion NG 1)	103 nM	13.5 nM		
GGUUGACGACAAUUACAUGAGGAUCACCCAUGUUGUGGGAUGCAGGAUAUGUGGUAUAUUAAUUAACAGAAGGGCAAUAAUUUU [JR_SSNG3_Sub062]			51 nM	33.8 nM
AAAUAAAUCGAAGGAUAUGACCCUCGAGGUGACUAAAAGUCACCUCGAGGGUCAGAAGGUCGAGGAUCACCCGAUCUAAAUAAA [#SharedSequence SLExNG1: 2-1] (puzzle (switch architecture): Small Loop Exclusion NG 1)	259 nM	16.2 nM		
UAGAUAUGGUGAGGAUAUGCAAAGGAUCACCUUGUAGAAGGCAUCAGGGUAGAAGGUGCAAGGAUCACCUGUAAGGAUAUAUCC [pwkr2 ssNG1 DX.32]			448 nM	1670 nM
AAUAAUCUUUAAGGAUAUGACUCCGAAACGGAGUCAGAAGGUGAGGAUCACCCAUCUAGCUCAGGGUCGAAAGACCCUGAGCAA [#SharedSequence - ExNG1-11] (puzzle (switch architecture): Exclusion NG 1)	101 nM	49.6 nM		
GCAAAUGGGCGAGGAUAUGGGACGGGCCUAAACAGGGCACAUGAGGAUCACCCAUGUCACACGACCCAGAAGGCGCUAAGAACG [Bemave]			144 nM	399 nM
GGUGUUAACACAGGAUAUCUGCGUAAACAGCGCGGAGAAGGGUGGGUGACCAAGGACACAUGAGGAUCACCCAUGUACCCUUAA [Timadier] (puzzle (switch architecture): Same State NG 1)	184 nM	72.7 nM		
GACGGAUUCUUAGGAUAUGCUCAGGAAUACUGAGCAGAAGGAAGAAUAACCUGAGGAUCACCCAGGUAAUACUGAACGUCAAUA [Same State NG1 - A3C, U17G Submission 9A]			23.7 nM	58.1 nM
ACAGGUCGUGAGAAGGCGUGUGGCACCGUCGAAAGACGGUGCAAUUAAAAUCUUCGAGGAUCACCCGAGGAUAUCACGACCUGA [#SharedSequence - IExNG2: 19] (puzzle (switch architecture): Inverted Exclusion NG 2)	32.2 nM	12.2 nM		
ACGUCCCGCAGAGGAUAUGUUGUUCGGCCUACAUGAGGAUCACCCAUGUCAAAGGGCUGAUCCCGACAGAAGGCUGAAGGAUAC [Qudiator]			24.8 nM	57.5 nM
AAUAAUCAGGUAGGAUAUGCUCAGGAAUACUGAGCAGAAGGACUAGAAACCUGAGGAUCACCCAGGUAACUGGACCGGAAACGG [Same State NG1 - A3C, U17G Submission 6C]			42.3 nM	81.1 nM
CCCUUCAGAAGAGGGACAUGAGGAUCACCCAUGUAGGCUGCACAGGAUAUCGAUCGGAGGCGGUACGAGAAGGGUGAUGUCAUU [Riorrebi]			27.9 nM	36.2 nM
CGAGACACUUGAGGAUAUGCUCAGGAAUACUGAGCAGAAGGCAGGGAAACCUGAGGAUCACCCAGGUAACUGGAAAGUCUCGAA [Same State NG1 - A3C, U17G Submission 5A]			19 nM	29.2 nM
GUAGCAUACCGAGGAUAUUCAUACCGGAAACGGACAUGAGGAUCACCCAUGUAAAUUCUAAAUUGGGAGAAGGCGGAAUGCUAC [Xeonanis 75 6]			46.6 nM	410 nM
CACAGGGAUUCAGGAUAUAUUAGCCGAGGCCGCGUAGAAGGGAAAUCCUGACAUGAGGAUCACCCAUGUUAACCCACCUUCCAU [Fingerlickinggood#3]			22.9 nM	27.3 nM
UCCGCUAUCGCAGGAUAUUACAUGGGAAAGAAUACAUGAGGAUCACCCAUGUAAAAGAUCAUAAAUAAGAAGGGCGAUAGCGGA [Lame State 8 - Jieux - Same State NG 2]			123 nM	654 nM
UCACUCACGUCAGGAUAUGGAUCGGAAAACGAUCCAGAAGGGACCUGCAAACUUGAGGAUCACCCAGGUUCCAAUAACGAGUGA [SameSame 12 - Jieux - Same State NG 1]			194 nM	307 nM
